In US20250257137A1:

Assays:
[1] = target: anti-CMVpHLA antibody (available from Ajou University)
[2] = target: anti-CMVpHLA antibody (available from Ajou University); remark: listed apart in the source
[3] = target: Fcµ receptor (R&D systems) (UniProt O60667); assay: ELISA, Fcµ coated, anti-IgM-HRP; IMB-4011 = 100
[4] = target: pIgR (polymeric Ig receptor; R&D systems) (UniProt P01833); assay: ELISA, pIgR coated, anti-IgM-HRP; IMB-4011 = 100
[5] = target: Fcα/µ receptor (R&D systems) (UniProt Q8WWV6); assay: ELISA, Fcα/µ coated, anti-IgM-HRP; IMB-4011 = 100
[6] = target: Fcµ receptor (R&D systems) (UniProt O60667); assay: ELISA, Fcµ coated; IMB-4011 = 100 (Example 2-7)
[7] = target: pIgR (polymeric Ig receptor; R&D systems) (UniProt P01833); assay: ELISA, pIgR coated; IMB-4011 = 100 (Example 2-7)
[8] = target: Fcα/µ receptor (R&D systems) (UniProt Q8WWV6); assay: ELISA, Fcα/µ coated; IMB-4011 = 100 (Example 2-7)
[9] = target: conjugate of FcRn and β2m antigen (ACRO biosystems) (UniProt P55899)

## CMVpHLA (peptide-MHC)
[1]
  Kd: 1.84 nM
  koff: 0.00464 s⁻¹
  kon: 2.52e+06 M⁻¹ s⁻¹

## [(CMVpHLA)2-((GGGGS)3)2-(IgM Fc region)]5-(J chain) (from UniProt P01591 23-159) (Fc fusion)
[1]
  Kd: 0.00622 nM

## [(CMVpHLA)2-(IgA hinge region)2-(IgM Fc region)]5-(J chain) (from UniProt P01591 23-159) (Fc fusion)
[1]
  Kd: 0.00586 nM

## [(CMVpHLA)2-(IgD hinge region)2-(IgM Fc region)]5-(J chain) (from UniProt P01591 23-159) (Fc fusion)
[1]
  Kd: 0.00681 nM
[2]
  EC50 (read off the curve): 0.02 nM

## [(CMVpHLA)2-(IgD hinge region)2-(IgM Fc region)]6-(J chain)0 (Fc fusion)
[1]
  Kd: 0.0233 nM
  koff: 0.000197 s⁻¹
  kon: 8.44e+06 M⁻¹ s⁻¹

## [(CMVpHLA)2-(linker)0-(IgM Fc region)]5-(J chain) (from UniProt P01591 23-159) (Fc fusion)
[1]
  Kd: 0.0102 nM
[2]
  EC50 (read off the curve): 0.01 nM

## [(CMVpHLA)2-(linker)2-(IgG Fc region)-(IgM Fc region L126 deletion)]5-(J chain) (from UniProt P0DOX6 341-576; P01591 23-159) (Fc fusion)
[3]
  Relative binding ability to Fcµ receptor (%): 12%
[4]
  Relative binding ability to pIgR (%): 6%
[5]
  Relative binding ability to Fcα/µ receptor (%): 1%

## [(CMVpHLA)2-(linker)2-(IgG Fc region)-(IgM Fc region L126G)]5-(J chain R106V) (from UniProt P0DOX6 341-576; P01591 23-159) (Fc fusion)
[6]
  Relative binding ability to Fcµ receptor (%): 3%
[7]
  Relative binding ability to pIgR (%): 2%
[8]
  Relative binding ability to Fcα/µ receptor (%): 0.4%

## [(CMVpHLA)2-(linker)2-(IgG Fc region)-(IgM Fc region L126G)]5-(J chain R106W) (from UniProt P0DOX6 341-576; P01591 23-159) (Fc fusion)
[6]
  Relative binding ability to Fcµ receptor (%): 3%
[7]
  Relative binding ability to pIgR (%): 2%
[8]
  Relative binding ability to Fcα/µ receptor (%): 0.5%

## [(CMVpHLA)2-(linker)2-(IgG Fc region)-(IgM Fc region L126G)]5-(J chain) (from UniProt P0DOX6 341-576; P01591 23-159) (Fc fusion)
[3]
  Relative binding ability to Fcµ receptor (%): 7%

## [(CMVpHLA)2-(linker)2-(IgG Fc region)-(IgM Fc region L126S)]5-(J chain R106V) (from UniProt P0DOX6 341-576; P01591 23-159) (Fc fusion)
[6]
  Relative binding ability to Fcµ receptor (%): 3%
[7]
  Relative binding ability to pIgR (%): 2%
[8]
  Relative binding ability to Fcα/µ receptor (%): 1%

## [(CMVpHLA)2-(linker)2-(IgG Fc region)-(IgM Fc region L126S)]5-(J chain R106W) (from UniProt P0DOX6 341-576; P01591 23-159) (Fc fusion)
[6]
  Relative binding ability to Fcµ receptor (%): 3%
[7]
  Relative binding ability to pIgR (%): 3%
[8]
  Relative binding ability to Fcα/µ receptor (%): 1%

## [(CMVpHLA)2-(linker)2-(IgG Fc region)-(IgM Fc region L126S)]5-(J chain) (from UniProt P0DOX6 341-576; P01591 23-159) (Fc fusion)
[3]
  Relative binding ability to Fcµ receptor (%): 7%
[4]
  Relative binding ability to pIgR (%): 8%

## [(CMVpHLA)2-(linker)2-(IgG Fc region)-(IgM Fc region N125K)]5-(J chain) (from UniProt P0DOX6 341-576; P01591 23-159) (Fc fusion)
[3]
  Relative binding ability to Fcµ receptor (%): 7%

## [(CMVpHLA)2-(linker)2-(IgG Fc region)-(IgM Fc region)]5-(J chain D105K) (from UniProt P0DOX6 341-576; P01591 23-159) (Fc fusion)
[4]
  Relative binding ability to pIgR (%): 8%

## [(CMVpHLA)2-(linker)2-(IgG Fc region)-(IgM Fc region)]5-(J chain N107K) (from UniProt P0DOX6 341-576; P01591 23-159) (Fc fusion)
[4]
  Relative binding ability to pIgR (%): 8%

## [(CMVpHLA)2-(linker)2-(IgG Fc region)-(IgM Fc region)]5-(J chain R106 deletion) (from UniProt P0DOX6 341-576; P01591 23-159) (Fc fusion)
[3]
  Relative binding ability to Fcµ receptor (%): 59%
[4]
  Relative binding ability to pIgR (%): 4%
[5]
  Relative binding ability to Fcα/µ receptor (%): 1%

## [(CMVpHLA)2-(linker)2-(IgG Fc region)-(IgM Fc region)]5-(J chain R106F) (from UniProt P0DOX6 341-576; P01591 23-159) (Fc fusion)
[5]
  Relative binding ability to Fcα/µ receptor (%): 7%

## [(CMVpHLA)2-(linker)2-(IgG Fc region)-(IgM Fc region)]5-(J chain) (from UniProt P0DOX6 341-576; P01591 23-159) (Fc fusion)
[9]
  EC50 (read off the curve): 200 nM
